# Laboratory results published in PMC6698841.
# Read-outs that look alike come from different tables or passages of the source.
# How the values were obtained:
# [1] = target: Variant 1051 (control; L234A/L235A on both heavy chains) (human); experiment: SPR; ProteOn XPR36, 25 °C; 10 mM HEPES, 150 mM NaCl, 3.4 mM EDTA, 0.05% Tween 20, pH 7.4; trastuzumab variants captured (approx. 500 RU) on amine-coupled recombinant HER-2 (GLM chip); FcγRs injected as analyte, five concentrations in 3-fold dilution; Equilibrium Fit model, mean of two or three runs
# [2] = target: Control Rituximab v1261 (anti-CD20 rituximab with heterodimerising CH3 mutations, no CH2 mutations) (human); experiment: SPR; ProteOn XPR36, 25 °C; 10 mM HEPES, 150 mM NaCl, 3.4 mM EDTA, 0.05% Tween 20, pH 7.4; rituximab variants captured on amine-coupled goat anti-human Fc; FcγRs injected as analyte, five concentrations in 3-fold dilution; Equilibrium Fit model; ratios against homodimeric trastuzumab WT
# [3] = target: Variant 791 (trastuzumab with heterodimerising CH3 mutations only, no CH2 mutations) (human); experiment: SPR; ProteOn XPR36, 25 °C; 10 mM HEPES, 150 mM NaCl, 3.4 mM EDTA, 0.05% Tween 20, pH 7.4; trastuzumab variants captured (approx. 500 RU) on amine-coupled recombinant HER-2 (GLM chip); FcγRs injected as analyte, five concentrations in 3-fold dilution; Equilibrium Fit model, mean of two or three runs
# [4] = target: Control Rituximab v1261 (anti-CD20 rituximab with heterodimerising CH3 mutations, no CH2 mutations) (human); experiment: SPR; ProteOn XPR36, 25 °C; 10 mM HEPES, 150 mM NaCl, 3.4 mM EDTA, 0.05% Tween 20, pH 7.4; rituximab variants captured on amine-coupled goat anti-human Fc; FcγRs injected as analyte, five concentrations in 3-fold dilution; Equilibrium Fit model; ratios against homodimeric trastuzumab WT; remark: listed apart in the source
# [5] = target: Variant 791 (trastuzumab with heterodimerising CH3 mutations only, no CH2 mutations) (human); experiment: SPR; ProteOn XPR36, 25 °C; 10 mM HEPES, 150 mM NaCl, 3.4 mM EDTA, 0.05% Tween 20, pH 7.4; trastuzumab variants captured (approx. 500 RU) on amine-coupled recombinant HER-2 (GLM chip); FcγRs injected as analyte, five concentrations in 3-fold dilution; Equilibrium Fit model, mean of two or three runs; remark: listed apart in the source
# [6] = target: Variant 1051 (control; L234A/L235A on both heavy chains) (human); experiment: as above; remark: listed apart in the source
# Chain of Control Rituximab v1261 (anti-CD20 rituximab with heterodimerising CH3 mutations, no CH2 mutations) (human) (heavy, as listed by the source, chain 1 of 2): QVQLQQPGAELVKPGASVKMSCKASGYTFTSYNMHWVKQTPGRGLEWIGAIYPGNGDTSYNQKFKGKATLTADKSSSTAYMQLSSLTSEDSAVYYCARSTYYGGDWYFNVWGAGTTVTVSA
# Chain of Control Rituximab v1261 (anti-CD20 rituximab with heterodimerising CH3 mutations, no CH2 mutations) (human) (light, as listed by the source, chain 2 of 2): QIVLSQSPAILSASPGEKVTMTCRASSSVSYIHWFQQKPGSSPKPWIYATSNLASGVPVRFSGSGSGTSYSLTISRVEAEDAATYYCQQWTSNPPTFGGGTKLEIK
Molecule,Kamut/KaWT (WT: homodimeric trastuzumab) [1],Kamut/KaWT (WT: homodimeric trastuzumab) [2],Kamut/KaWT (WT: homodimeric trastuzumab) [3],Kamut/KaWT (WT: homodimeric trastuzumab) [4],Kamut/KaWT (WT: homodimeric trastuzumab) [5],Kamut/KaWT (WT: homodimeric trastuzumab) [6]
FcγR 3aF (from UniProt P08637 17-254) (receptor),0.29,1.4,–,–,–,–
FcγR 2aH (from UniProt P12318 34-317) (receptor),0.06,1.9,1.7,–,–,–
FcγR 1a (CD64) (from UniProt P12314 16-374) (receptor),0.01,–,–,–,–,–
FcγR 2b (from UniProt P31994 43-310) (receptor),0.52,1.9,–,–,–,–
"FcγR 2aR, P12318 34-317 (receptor, modifications not checked) QAAAPPKAVLKLEPPWINVLQEDSVTLTCQGARSPESDSIQWFHNGNLIPTHTQPSYRFKANNNDSGEYTCQTGQTSLSDPVHLTVLSEWLVLQTPHLEFQEGETIMLRCHSWKDKPLVKVTFFQNGKSQKFSRLDPTFSIPQANHSHSGDYHCTGNIGYTLFSSKPVTITVQVPSMGSSSPMG",–,–,–,1.5,1.7,0.06
